Data set [1] has as its target Populus trichocarpa tau glutathione transferase GSTU19 (PtGSTU19) (Populus trichocarpa). Put plainly: SEC-MALS; purified untagged recombinant protein; conditions not told in the text shown (Supplementary Figure S3B).
Data set [2] deals with Populus trichocarpa tau glutathione transferase GSTU20 (PtGSTU20) (Populus trichocarpa). Described as above.
Data set [3] has as its system S=C=NCCc1ccccc1. The data set can be described thus: purified protein, by the assay type. The following applies: pH 8.0; 25.0 °C.
Data set [4] has as its system CCCCCC(O)C=CC=O. Put plainly: purified protein, by the assay type. The following applies: pH 8.0; 25.0 °C.
Data set [5] has as its system CCCC(=O)Oc1ccc([N+](=O)[O-])cc1. Put plainly: purified protein, by the assay type. The following applies: pH 8.0.
In data set [6] the test system is S=C=NCc1ccccc1. Put plainly: purified protein, by the assay type. The following applies: pH 8.0.
Data set [7] concerns CCCC(=O)Oc1ccc([N+](=O)[O-])cc1. The data set can be described thus: GSH-conjugation activity toward model substrates, variant. The data set is classed as biochemical, Populus trichocarpa. The following applies: mean ± S.D., n = 3, pH 8.0.
Experimental: Peroxidase activity toward hydroperoxides was measured using an NADPH coupled spectrophotometric assay ([Pégeot et al., 2014]).
The measured velocities were corrected by subtracting the rate of the spontaneous nonenzymatic reaction, and three independent experiments were performed at each substrate concentration.
The mark [8] stands for this setting: other: PtGSTU19 Y160A, fixed saturating GSH.
Where [9] appears, read: other: PtGSTU19 Y160C, fixed saturating GSH.
[10] abbreviates: other: PtGSTU19 Y160F, fixed saturating GSH.
The mark [11] stands for this setting: other: line printed as PtGSTU19 C160Y in Table S4, fixed saturating GSH.

Sequence of PtGSTU19Y160F (Populus trichocarpa; Y160F) (chain, as listed by the source Y160F): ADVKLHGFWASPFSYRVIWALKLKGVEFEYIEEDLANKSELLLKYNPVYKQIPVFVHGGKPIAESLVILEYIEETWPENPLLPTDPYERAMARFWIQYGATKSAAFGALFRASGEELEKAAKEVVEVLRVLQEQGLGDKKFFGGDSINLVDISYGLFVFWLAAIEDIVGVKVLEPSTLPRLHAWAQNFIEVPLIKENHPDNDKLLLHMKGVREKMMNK
Sequence of PtGSTU20 (Populus trichocarpa) (chain, as listed by the source): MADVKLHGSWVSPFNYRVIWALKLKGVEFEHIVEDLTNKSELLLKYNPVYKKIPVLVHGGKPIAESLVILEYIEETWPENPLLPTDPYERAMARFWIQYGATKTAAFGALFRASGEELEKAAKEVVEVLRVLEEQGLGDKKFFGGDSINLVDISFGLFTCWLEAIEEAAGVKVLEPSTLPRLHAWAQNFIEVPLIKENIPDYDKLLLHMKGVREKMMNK
Sequence of PtGSTU19Y160C (Populus trichocarpa; Y160C) (chain, as listed by the source Y160C): as the sequence (chain, as listed by the source Y160F) above, with F159C counted along it
Sequence of PtGSTU19 (Populus trichocarpa) (chain, as listed by the source): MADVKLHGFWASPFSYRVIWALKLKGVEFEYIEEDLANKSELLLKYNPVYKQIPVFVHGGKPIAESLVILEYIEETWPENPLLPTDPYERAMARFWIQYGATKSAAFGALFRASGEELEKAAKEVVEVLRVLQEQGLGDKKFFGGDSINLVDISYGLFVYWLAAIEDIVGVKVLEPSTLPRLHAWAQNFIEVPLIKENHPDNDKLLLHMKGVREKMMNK
Sequence of PtGSTU20C160Y (Populus trichocarpa; C160Y) (chain, as listed by the source C160Y): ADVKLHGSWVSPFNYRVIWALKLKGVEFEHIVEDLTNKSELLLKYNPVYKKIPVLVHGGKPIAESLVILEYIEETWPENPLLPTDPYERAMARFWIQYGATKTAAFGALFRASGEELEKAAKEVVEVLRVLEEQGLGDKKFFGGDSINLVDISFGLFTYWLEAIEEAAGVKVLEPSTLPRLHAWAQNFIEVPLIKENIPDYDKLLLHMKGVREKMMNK
Sequence of PtGSTU19Y160A (Populus trichocarpa; Y160A) (chain, as listed by the source Y160A): as the sequence (chain, as listed by the source Y160F) above, with F159A counted along it

As for “Populus trichocarpa tau glutathione transferase GSTU19 (PtGSTU19) (enzyme)”, the stoichiometry N in data set [1] was found to be 2.
With “Populus trichocarpa tau glutathione transferase GSTU20 (PtGSTU20) (enzyme)”, the stoichiometry N in data set [2] came to 2.
Take PtGSTU19 (Populus trichocarpa): the Km amounted to 48.4 ± 2.5 µM in data set [3], 56.4 ± 7.4 µM in data set [4], 443.5 ± 31.1 µM in data set [5] and 52.7 ± 3.6 µM in data set [6]. For the same substance, the kcat in data set [3] worked out at 3.8 s⁻¹; in data set [4], 0.11 s⁻¹; in data set [5], 0.04 ± 0.001 s⁻¹; in data set [6] it was 7 ± 0.1 s⁻¹. For the same substance, the kcat/Km in data set [3] is 79000 M⁻¹ s⁻¹; in data set [4] it was 2000 M⁻¹ s⁻¹; in data set [5] it was 100 ± 2 M⁻¹ s⁻¹; in data set [6], 132200 ± 200 M⁻¹ s⁻¹.
As to “PtGSTU19Y160A (Populus trichocarpa; Y160A)”, in data set [7] (setting [8]), the Km came to 534.6 ± 68.1 µM, the kcat came to 0.050 ± 0.002 s⁻¹ and the kcat/Km is 0.090 ± 0.004 103M-1.s-1.
For the substance “PtGSTU19Y160C (Populus trichocarpa; Y160C)”, in data set [7] (setting [9]), the Km is on record as 518.3 ± 57.6 µM, the kcat came out at 0.050 ± 0.002 s⁻¹ and the kcat/Km is listed as 0.100 ± 0.003 103M-1.s-1.
Consider “PtGSTU19Y160F (Populus trichocarpa; Y160F)”, for which, in data set [7] (setting [10]), the Km was found to be 693.2 ± 63.8 µM, the kcat turned out to be 0.050 ± 0.002 s⁻¹ and the kcat/Km is listed as 0.080 ± 0.003 103M-1.s-1.
On to PtGSTU20 (Populus trichocarpa), for which the Km in data set [3] was 56.8 ± 4.1 µM; in data set [4], 30.6 ± 3.5 µM; in data set [5] it was 329.2 ± 28.1 µM; in data set [6], 149.6 ± 17.6 µM. The kcat in data set [3] worked out at 5.1 s⁻¹; in data set [4], 0.11 s⁻¹; in data set [5], 0.02 ± 0.001 s⁻¹; in data set [6], 10.4 ± 0.3 s⁻¹. Moreover, the kcat/Km came out at 88900 M⁻¹ s⁻¹ in data set [3], 3600 M⁻¹ s⁻¹ in data set [4], 60 ± 3 M⁻¹ s⁻¹ in data set [5] and 69800 ± 2200 M⁻¹ s⁻¹ in data set [6].
Consider “PtGSTU20C160Y (Populus trichocarpa; C160Y)”, for which, in data set [7] (setting [11]), the Km came out at 326.2 ± 67.6 µM, the kcat came out at 0.020 ± 0.001 s⁻¹ and the kcat/Km was 0.060 ± 0.003 103M-1.s-1.

These data come from article PMC9412104, “Biochemical and Structural Insights on the Poplar Tau Glutathione Transferase GSTU19 and 20 Paralogs Binding Flavonoids” (Frontiers in Molecular Biosciences, 2022).
